Measurements published in patent publication US20170160291.

B1: recombinant protease MASP3 (protein)
chain: HTVELNNMFGQIQSPGYPDSYPSDSEVTWNITVPDGFRIKLYFMHFNLESSYLCEYDYVKVETEDQVLATFCGRETTDTEQTPGQEVVLSPGSFMSITFRSDFSNEERFTGFDAHYMAVDVDECKEREDEELSCDHYCHNYIGGYYCSCRFGYILHTDNRTCRVECSDNLFTQRTGVITSPDFPNPYPKSSECLYTIELEEGFMVNLQFEDIFDIEDHPEVPCPYDYIKIKVGPKVLGPFCGEKAPEPISTQSHSVLILFHSDNSGENRGWRLSYRAAGNECPELQPPVHGKIEPSQAKYFFKDQVLVSCDTGYKVLKDNVEMDTFQIECLKDGTWSNKIPTCKIVDCRAPGELEHGLITFSTRNNLTTYKSEIKYSCQEPYYKMLNNNTGIYTCSAQGVWMNKVLGRSLPTCLPECGQPSRSLPSLVKRIIGGRNAEPGLFPWQALIVVEDTSRVPNDKWFGSGALLSASWILTAAHVLRSQRRDTTVIPVSKEHVTVYLGLHDVRDKSGAVNSSAARVVLHPDFNIQNYNHDIALVQLQEPVPLGPHVMPVCLPRLEPEGPAPHMLGLVAGWGISNPNVTVDEIISSGTRTLSDVLQYVKLPVVPHAECKTSYESRSGNYSVTENMFCAGYYEGGKDTCLGDSGGAFVIFDDLSQRWVVQGLVSWGGPEECGSKQVYGVYTKVSNYVDWVWEQMGLPQSVVEPQVER
B2: recombinant protease MASP1 (protein)
chain: HTVELNNMFGQIQSPGYPDSYPSDSEVTWNITVPDGFRIKLYFMHFNLESSYLCEYDYVKVETEDQVLATFCGRETTDTEQTPGQEVVLSPGSFMSITFRSDFSNEERFTGFDAHYMAVDVDECKEREDEELSCDHYCHNYIGGYYCSCRFGYILHTDNRTCRVECSDNLFTQRTGVITSPDFPNPYPKSSECLYTIELEEGFMVNLQFEDIFDIEDHPEVPCPYDYIKIKVGPKVLGPFCGEKAPEPISTQSHSVLILFHSDNSGENRGWRLSYRAAGNECPELQPPVHGKIEPSQAKYFFKDQVLVSCDTGYKVLKDNVEMDTFQIECLKDGTWSNKIPTCKIVDCRAPGELEHGLITFSTRNNLTTYKSEIKYSCQEPYYKMLNNNTGIYTCSAQGVWMNKVLGRSLPTCLPVCGLPKFSRKLMARIFNGRPAQKGTTPWIAMLSHLNGQPFCGGSLLGSSWIVTAAHCLHQSLDPEDPTLRDSDLLSPSDFKIILGKHWRLRSDENEQHLGVKHTTLHPQYDPNTFENDVALVELLESPVLNAFVMPICLPEGPQQEGAMVIVSGWGKQFLQRFPETLMEIEIPIVDHSTCQKAYAPLKKKVTRDMICAGEKEGGKDACAGDSGGPMVTLNRERGQWYLVGTVSWGDDCGKKDRYGVYSYIHHNKDWIQRVTGVRN
B3: recombinant protease C1S (protein)
chain: EPTMYGEILSPNYPQAYPSEVEKSWDIEVPEGYGIHLYFTHLDIELSENCAYDSVQIISGDTEEGRLCGQRSSNNPHSPIVEEFQVPYNKLQVIFKSDFSNEERFTGFAAYYVATDINECTDFVDVPCSHFCNNFIGGYFCSCPPEYFLHDDMKNCGVNCSGDVFTALIGEIASPNYPKPYPENSRCEYQIRLEKGFQVVVTLRREDFDVEAADSAGNCLDSLVFVAGDRQFGPYCGHGFPGPLNIETKSNALDIIFQTDLTGQKKGWKLRYHGDPMPCPKEDTPNSVWEPAKAKYVFRDVVQITCLDGFEVVEGRVGATSFYSTCQSNGKWSNSKLKCQPVDCGIPESIENGKVEDPESTLFGSVIRYTCEEPYYYMENGGGGEYHCAGNGSWVNEVLGPELPKCVPVCGVPREPFEEKQRIIGGSDADIKNFPWQVFFDNPWAGGALINEYWVLTAAHVVEGNREPTMYVGSTSVQTSRLAKSKMLTPEHVFIHPGWKLLEVPEGRTNFDNDIALVRLKDPVKMGPTVSPICLPGTSSDYNLMDGDLGLISGWGRTEKRDRAVRLKAARLPVAPLRKCKEVKVEKPTADAEAYVFTPNMICAGGEKGMDSCKGDSGGAFAVQDPNDKTKFYAAGLVSWGPQCGTYGLYTRVKNYVDWIMKTMQENSTPRED
B4: recombinant protease C1R (protein)
chain: SIPIPQKLFGEVTSPLFPKPYPNNFETTTVITVPTGYRVKLVFQQFDLEPSEGCFYDYVKISADKKSLGRFCGQLGSPLGNPPGKKEFMSQGNKMLLTFHTDFSNEENGTIMFYKGFLAYYQAVDLDECASRSKSGEEDPQPQCQHLCHNYVGGYFCSCRPGYELQEDTHSCQAECSSELYTEASGYISSLEYPRSYPPDLRCNYSIRVERGLTLHLKFLEPFDIDDHQQVHCPYDQLQIYANGKNIGEFCGKQRPPDLDTSSNAVDLLFFTDESGDSRGWKLRYTTEIIKCPQPKTLDEFTIIQNLQPQYQFRDYFIATCKQGYQLIEGNQVLHSFTAVCQDDGTWHRAMPRCKIKDCGQPRNLPNGDFRYTTTMGVNTYKARIQYYCHEPYYKMQTRAGSRESEQGVYTCTAQGIWKNEQKGEKIPRCLPVCGKPVNPVEQRQRIIGGQKAKMGNFPWQVFTNIHGRGGGALLGDRWILTAAHTLYPKEHEAQSNASLDVFLGHTNVEELMKLGNHPIRRVSVHPDYRQDESYNFEGDIALLELENSVTLGPNLLPICLPDNDTFYDLGLMGYVSGFGVMEEKIAHDLRFVRLPVANPQACENWLRGKNRMDVFSQNMFCAGHPSLKQDACQGDSGGVFAVRDPNTDRWVATGIVSWGIGCSRGYGFYTKVLNYVDWIKKEMEEED

Biological target: immature human CFD (proCFD)

| Protein | degree of processing of the proCFD N terminus (targeted mass spectrometry, convertase activity test) | processing of proCFD (IEF immunoblot after overnight incubation at 37 C) |
| --- | --- | --- |
| B1 | Only the proteases from the MASP family, i.e. L. MASP3 show a successful activation of proCFD | proCFD treated with MASP3 was almost completely converted into active CFD and even shows further processed forms (lane 2) |
| B2 | – | ProCFD treated with MASP1 was not strongly processed (lane 1) |
| B3 | – | the convertase C1S hardly shows effects (lane 4, like MASP1) |
| B4 | – | The treatment with C1R resulted in a partial processing/activation (lane 3) |
